Measured values reported in patent US20160264663A1 (published 2016).

T1: human podocalyxin (human)
T1 chain: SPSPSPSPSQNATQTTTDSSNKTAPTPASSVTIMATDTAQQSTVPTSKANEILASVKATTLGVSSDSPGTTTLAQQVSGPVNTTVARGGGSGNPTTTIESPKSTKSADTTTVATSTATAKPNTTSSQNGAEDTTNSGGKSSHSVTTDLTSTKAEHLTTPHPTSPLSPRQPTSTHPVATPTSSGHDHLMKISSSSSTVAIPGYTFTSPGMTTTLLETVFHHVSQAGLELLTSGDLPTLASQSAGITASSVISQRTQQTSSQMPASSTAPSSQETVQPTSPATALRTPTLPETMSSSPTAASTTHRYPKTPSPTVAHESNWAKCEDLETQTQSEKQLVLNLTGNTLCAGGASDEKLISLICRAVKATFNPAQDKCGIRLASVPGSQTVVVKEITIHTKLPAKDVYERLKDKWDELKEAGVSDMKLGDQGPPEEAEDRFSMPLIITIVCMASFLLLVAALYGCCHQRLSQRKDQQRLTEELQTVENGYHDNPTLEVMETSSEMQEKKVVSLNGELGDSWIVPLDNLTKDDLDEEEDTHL


What was measured:
[1] = molecular target: T1, human podocalyxin; test: cross competition FACS on MDA-MB-231 cells; unlabeled antibody 25 ug/mL; detected antibody: B-mIgG1 5 ug/mL (control)
[2] = molecular target: T1, human podocalyxin; test: cross competition FACS on MDA-MB-231 cells; unlabeled antibody 25 ug/mL; competitor and detected antibody: biotinylated Rb/Hu Podo83 5 ug/mL
[3] = molecular target: T1, human podocalyxin; test: cross competition FACS on MDA-MB-231 cells; unlabeled antibody 25 ug/mL; detected antibody: B-Ova 12 5 ug/mL (control)
[4] = molecular target: T1, human podocalyxin; test: cross competition FACS on MDA-MB-231 cells; unlabeled antibody 25 ug/mL; detected antibody: B-Herceptin 5 ug/mL (control, its target on the cells not given)
[5] = molecular target: T1, human podocalyxin; test: cross competition FACS on MDA-MB-231 cells; unlabeled antibody 25 ug/mL; competitor and detected antibody: B-3G2.2 5 ug/mL
[6] = molecular target: human podocalyxin (human); test: FACS, hPodo/MDA cells (MDA-MB-231 transfected with human podocalyxin cDNA)
[7] = molecular target: human podocalyxin (human); test: flow cytometry, supernatant neat, MDA-MB-231 cells
[8] = molecular target: human podocalyxin (human); test: flow cytometry, supernatant neat, hPodo/MDA-MB-231 transient transfectants
[9] = molecular target: human podocalyxin (human); test: flow cytometry, supernatant 1:125, hPodo/MDA-MB-231 transient transfectants
[10] = molecular target: human podocalyxin (human); test: flow cytometry, supernatant 1:5, hPodo/MDA-MB-231 transient transfectants
[11] = molecular target: human podocalyxin (human); test: flow cytometry, supernatant 2:15 (so in the source), hPodo/MDA-MB-231 transient transfectants
[12] = molecular target: human podocalyxin (human); test: flow cytometry, supernatant 2:15 (so in the source), MDA-MB-231 cells
[13] = molecular target: human podocalyxin (human); test: flow cytometry, supernatant 1:125, MDA-MB-231 cells
[14] = molecular target: human podocalyxin (human); test: flow cytometry, supernatant 1:5, MDA-MB-231 cells
[15] = molecular target: T1, human podocalyxin; test: flow cytometry, supernatant neat, MDA-MB-231 cells
[16] = molecular target: T1, human podocalyxin; test: flow cytometry, supernatant 1:125, MDA-MB-231 cells
[17] = molecular target: T1, human podocalyxin; test: flow cytometry, supernatant neat, hPodo/MDA-MB-231 transient transfectants
[18] = molecular target: T1, human podocalyxin; test: flow cytometry, supernatant 1:5, MDA-MB-231 cells
[19] = molecular target: T1, human podocalyxin; test: flow cytometry, supernatant 2:15 (so in the source), MDA-MB-231 cells
[20] = molecular target: T1, human podocalyxin; test: flow cytometry titration on 293-6E cells (endogenous podocalyxin), 48 hours at 4 C
[21] = molecular target: T1, human podocalyxin; test: flow cytometry, supernatant 1:5, hPodo/MDA-MB-231 transient transfectants
[22] = molecular target: T1, human podocalyxin; test: flow cytometry titration on 293-6E cells (endogenous podocalyxin), 24 hours at 4 C
[23] = molecular target: T1, human podocalyxin; test: flow cytometry, supernatant 1:125, hPodo/MDA-MB-231 transient transfectants
[24] = molecular target: T1, human podocalyxin; test: kinetic exclusion assay (KinExA 3200), MDA-MB-231 cells
[25] = molecular target: T1, human podocalyxin; test: flow cytometry, supernatant 2:15 (so in the source), hPodo/MDA-MB-231 transient transfectants

Molecule | FACS signal (name not given) [15] | FACS signal (name not given) [16] | FACS signal (name not given) [17] | FACS signal (name not given) [18] | FACS signal (name not given) [19] | FACS signal (name not given) [21] | FACS signal (name not given) [23] | FACS signal (name not given) [25] | also measured
MAB1658 (R&D Systems) (antibody) | – | – | – | – | – | – | – | – | FACS signal (name not given) [1]: 431; FACS signal (name not given) [2]: 127000; FACS signal (name not given) [3]: 476; FACS signal (name not given) [4]: 4720; FACS signal (name not given) [5]: 26900
Rb/huPodo 83 hIgG2 (antibody, V domains shown, human IgG2 constant regions) VH: CQSLAESGGRLVTPGTPLTLTCTASGIDLSSYAMGWVRQAPGKGLEYIGFIYASGSIFYASWAKGRFTISKTSSTTVDLKMTSLTTEDTATYFCARAGYYFGGNYDLNLWGQGTLVTVSS VL: DIVLTQTPASVEVAVGGTVTIKCQASQSISNYLAWYQRKPGQPPRLLIYRASTLASGVSSRFKGSGSGTQFTLTISGVECADAATYYCQQGYVSNNLDNIFGGGTEVVVK | – | – | – | – | – | – | – | – | FACS signal (name not given) [6]: 98300
Rabbit Podo 83 (Parental rabbit antibody) (antibody, V domains shown, rabbit constant regions) VH: CQSLAESGGRLVTPGTPLTLTCTASGIDLSSYAMGWVRQAPGKGLEYIGFIYASGSIFYASWAKGRFTISKTSSTTVDLKMTSLTTEDTATYFCARAGYYFGGNYDLNLWGQGTLVTVSS VL: DIVLTQTPASVEVAVGGTVTIKCQASQSISNYLAWYQRKPGQPPRLLIYRASTLASGVSSRFKGSGSGTQFTLTISGVECADAATYYCQQGYVSNNLDNIFGGGTEVVVK | – | – | – | – | – | – | – | – | FACS signal (name not given) [7]: 179000; FACS signal (name not given) [8]: 90800; FACS signal (name not given) [9]: 24100; FACS signal (name not given) [10]: 139000; FACS signal (name not given) [11]: 89700; FACS signal (name not given) [12]: 53700; FACS signal (name not given) [13]: 15500; FACS signal (name not given) [14]: 129000
huPodo 83 1:1 (humanized anti-podocalyxin antibody 83, version 1) (antibody, V domains shown) VH: EVQLVESGGGLVQPGGSLRLSCAASGIDLSSYAMGWVRQAPGKGLEWVSFIYASGSIFYASWAKGRFTISRDNSKNTLYLQMNSLRAEDTAVYYCARAGYYFGGNYDLNLWGQGTLVTVSS VL: DIQMTQSPSSLSASVGDRVTITCQASQSISNYLAWYQQKPGKVPKLLIYRASTLASGVPSRFSGSGSGTDFTLTISSLQPEDVATYYCQQGYVSNNLDNIFGGGTEVVVK | 125000 | 39400 | 124000 | 112000 | 91500 | 128000 | 61600 | 157000 | IC50 [20]: 0.0355 mg/L; EC50 [22]: 0.0331 mg/L; Kd [24]: 0.26 nM
huPodo 83 2:1 (humanized anti-podocalyxin antibody 83, version 2) (antibody, V domains shown) VH: EVQLVESGGGLVQPGGSLRLSCAASGIDLSSYAMGWVRQAPGKGLEWVSFIYASGSIFYASWAKGRFTISRDNSNTLYLQMNSLRAEDTAVYYCARAGYYFGGNYDLNLWGQGTLVTVSS VL: DIQMTQSPSSLSASVGDRVTITCQASQSISNYLAWYQQKPGKVPKLLIYRASTLASGVPSRFSGSGSGTDFTLTISSLQPEDVATYYCQQGYVSNNLDNIFGGGTEVVVK | 123000 | 22300 | 139000 | 105000 | 67200 | 108000 | 37700 | 79400 | IC50 [20]: 0.052 mg/L; EC50 [22]: 0.0519 mg/L
Rb VH, Vk 1:1 (Podo 83 rabbit VH, human CH1-CH3, human Ck, and humanized Vk) (antibody, V domains shown) VH: QSLAESGGRLVTPGTPLTLTCTASGIDLSSYAMGWVRQAPGKGLEYIGFIYASGSIFYASWAKGRFTISKTSSTTVDLKMTSLTTEDTATYFCARAGYYFGGNYDLNLWGQGTLVTVSS VL: DIQMTQSPSSLSASVGDRVTITCQASQSISNYLAWYQQKPGKVPKLLIYRASTLASGVPSRFSGSGSGTDFTLTISSLQPEDVATYYCQQGYVSNNLDNIFGGGTEVVVK | 130000 | 47700 | 137000 | 115000 | 94800 | 124000 | 74500 | 76400 | –
Mouse anti-podocalyxin antibody 3G2 (antibody, V domains shown) VH: EVQLQQSGPELVKPGASVKMSCKASGYTFTSYVMHWVKQKPGQGLEWIGYIHPYNDGTNYNEKFKGKATLTSDKSSNTAYMELSSLTSEDSAVYYCARSWDWYFDVWGAGTTVTVSS VL: QIVLTQSPAIMSASPGEKVTMTCSANSNVRYIHWHQQKSGTSPKRWIYDTSKLSSGVPARFSGSGSGTSYSLTISNMEAEDAATYYCQQWISNPLTFGAGTKLELK | – | – | – | – | – | – | – | – | Kd [24]: 3.34 nM
